Results published in the supplement of paper PMC9876800.

Tested on: peptide library, one residue held at a place counted from the S/T acceptor
Test: relative phosphorylation of the sub-library (ratio to the mean residue at this position); higher = residue favoured
Details: human
Method in brief: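 Purified recombinant kinases were reacted in 384-well plates with biotinylated degenerate peptide sub-libraries, each having one residue fixed at one position around a central Ser/Thr. The reaction mix contained 50 μM peptide plus 50 μM ATP spiked with γ-32P-ATP and ran for 90 min under kinase-specific conditions. Relative sub-library phosphorylation, taken from densitometry of phosphorimaged streptavidin membrane spots, is a ratio to the mean residue at that position.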

Sequence of AKT3, construct: aa106-end (Q9Y243 106-479, looked up): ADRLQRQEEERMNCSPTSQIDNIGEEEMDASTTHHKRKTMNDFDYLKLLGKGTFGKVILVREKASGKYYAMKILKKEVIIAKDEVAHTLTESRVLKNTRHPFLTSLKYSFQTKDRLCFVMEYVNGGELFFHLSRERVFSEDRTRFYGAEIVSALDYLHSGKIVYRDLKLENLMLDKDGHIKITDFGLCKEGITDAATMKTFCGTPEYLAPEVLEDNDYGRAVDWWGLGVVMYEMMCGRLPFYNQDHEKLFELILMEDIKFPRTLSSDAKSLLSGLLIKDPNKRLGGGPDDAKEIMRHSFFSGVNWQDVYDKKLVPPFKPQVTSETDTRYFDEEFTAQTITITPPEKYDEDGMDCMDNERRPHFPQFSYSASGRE
Sequence of MAP4K2, construct: Full length (Q12851 whole entry, looked up): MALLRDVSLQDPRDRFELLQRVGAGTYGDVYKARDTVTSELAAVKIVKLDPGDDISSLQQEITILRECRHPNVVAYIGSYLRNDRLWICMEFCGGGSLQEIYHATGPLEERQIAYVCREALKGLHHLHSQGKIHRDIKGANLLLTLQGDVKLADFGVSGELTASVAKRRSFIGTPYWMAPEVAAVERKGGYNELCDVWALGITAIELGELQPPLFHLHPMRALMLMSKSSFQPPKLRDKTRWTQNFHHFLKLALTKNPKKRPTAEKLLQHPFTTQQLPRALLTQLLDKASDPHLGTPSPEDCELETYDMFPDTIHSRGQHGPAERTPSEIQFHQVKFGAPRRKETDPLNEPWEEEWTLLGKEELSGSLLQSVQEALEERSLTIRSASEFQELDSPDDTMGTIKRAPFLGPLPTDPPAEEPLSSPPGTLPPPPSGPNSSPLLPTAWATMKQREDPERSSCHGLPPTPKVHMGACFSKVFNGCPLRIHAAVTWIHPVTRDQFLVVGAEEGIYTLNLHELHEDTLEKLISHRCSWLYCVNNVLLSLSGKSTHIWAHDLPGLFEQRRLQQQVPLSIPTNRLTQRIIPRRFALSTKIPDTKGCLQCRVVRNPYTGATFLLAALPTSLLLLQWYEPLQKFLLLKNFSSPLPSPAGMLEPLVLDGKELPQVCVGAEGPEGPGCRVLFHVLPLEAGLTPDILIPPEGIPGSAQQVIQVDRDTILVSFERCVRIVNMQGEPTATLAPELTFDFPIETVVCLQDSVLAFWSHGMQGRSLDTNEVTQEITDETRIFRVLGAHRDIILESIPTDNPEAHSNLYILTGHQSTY
Sequence of SBK1, construct: Full length (Q52WX2 whole entry, looked up): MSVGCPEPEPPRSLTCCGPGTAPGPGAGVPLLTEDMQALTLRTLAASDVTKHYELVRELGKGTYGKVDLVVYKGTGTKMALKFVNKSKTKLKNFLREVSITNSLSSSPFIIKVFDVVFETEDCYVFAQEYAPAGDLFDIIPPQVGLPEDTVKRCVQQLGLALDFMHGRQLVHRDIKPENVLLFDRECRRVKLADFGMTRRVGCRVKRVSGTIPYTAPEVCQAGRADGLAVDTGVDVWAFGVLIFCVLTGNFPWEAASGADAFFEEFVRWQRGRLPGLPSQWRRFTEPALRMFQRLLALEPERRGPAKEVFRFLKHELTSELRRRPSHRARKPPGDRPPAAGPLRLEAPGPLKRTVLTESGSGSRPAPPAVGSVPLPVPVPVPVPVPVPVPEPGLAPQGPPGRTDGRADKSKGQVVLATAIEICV
Sequence of AKT2, construct: Full length (P31751 whole entry, looked up): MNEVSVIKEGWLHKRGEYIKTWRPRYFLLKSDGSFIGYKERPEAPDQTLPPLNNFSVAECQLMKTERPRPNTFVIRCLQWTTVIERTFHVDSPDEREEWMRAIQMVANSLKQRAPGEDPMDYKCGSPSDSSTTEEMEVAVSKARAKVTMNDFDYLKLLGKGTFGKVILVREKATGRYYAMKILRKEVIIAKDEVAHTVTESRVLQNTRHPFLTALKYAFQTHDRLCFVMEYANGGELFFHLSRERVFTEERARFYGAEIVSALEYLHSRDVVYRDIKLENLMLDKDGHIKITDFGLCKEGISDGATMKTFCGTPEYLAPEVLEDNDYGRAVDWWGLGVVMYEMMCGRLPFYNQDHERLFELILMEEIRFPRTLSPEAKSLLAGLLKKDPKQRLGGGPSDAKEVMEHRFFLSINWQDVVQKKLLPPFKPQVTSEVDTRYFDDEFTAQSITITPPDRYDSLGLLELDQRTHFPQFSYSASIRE

AKT3, construct: aa106-end (from UniProt Q9Y243)
relative phosphorylation
Details | at +1 | at +2 | at +3 | at +4 | at -1 | at -2 | at -3 | at -4 | at -5
A fixed | 0.69 | 1.13 | 0.867 | 0.755 | 0.872 | 0.914 | 0.532 | 1.12 | 1.27
D fixed | 0.38 | 0.56 | 0.496 | 0.586 | 0.669 | 0.149 | 0.13 | 0.491 | 0.464
E fixed | 0.326 | 0.385 | 0.465 | 0.496 | 0.35 | 0.142 | 0.138 | 0.558 | 0.437
F fixed | 2.25 | 0.596 | 0.824 | 0.604 | 0.783 | 0.32 | 0.168 | 0.611 | 0.672
G fixed | 0.775 | 1.29 | 1.18 | 1.07 | 1.28 | 0.494 | 0.329 | 1.04 | 1.06
H fixed | 0.962 | 2.06 | 1.45 | 1.11 | 1.18 | 1.17 | 0.56 | 0.991 | 1.18
I fixed | 1.29 | 0.723 | 0.938 | 0.691 | 0.245 | 0.274 | 0.131 | 0.515 | 0.577
K fixed | 0.962 | 1.31 | 1.9 | 1.8 | 1.65 | 3.02 | 1.5 | 2.19 | 2.15
L fixed | 1.14 | 0.987 | 0.872 | 0.682 | 0.746 | 0.772 | 0.165 | 0.645 | 0.557
M fixed | 1.58 | 0.774 | 0.718 | 0.716 | 1.12 | 0.391 | 0.179 | 0.833 | 0.648
N fixed | 1.01 | 1.15 | 0.911 | 1.02 | 1.81 | 0.373 | 0.241 | 0.843 | 0.734
P fixed | 0.407 | 0.746 | 0.842 | 2.68 | 1.14 | 0.283 | 0.406 | 1.06 | 1.2
Q fixed | 0.895 | 0.716 | 0.981 | 0.98 | 1.03 | 0.429 | 0.502 | 1.02 | 0.797
R fixed | 1.09 | 1.82 | 1.86 | 1.54 | 1.63 | 7.37 | 11.4 | 3.08 | 2.97
V fixed | 1.23 | 1.02 | 0.711 | 0.659 | 0.402 | 0.324 | 0.147 | 0.639 | 0.692
W fixed | 0.989 | 0.917 | 1.11 | 0.911 | 0.647 | 0.253 | 0.218 | 0.638 | 0.847
Y fixed | 1.04 | 0.812 | 0.87 | 0.697 | 1.46 | 0.326 | 0.222 | 0.727 | 0.752
pThr fixed | 0.571 | 0.463 | 0.682 | 0.639 | 0.279 | 0.294 | 0.255 | 0.612 | 0.545
pTyr fixed | 0.643 | 0.656 | 0.74 | 0.517 | 0.787 | 0.263 | 0.223 | 0.537 | 0.618

SBK1, construct: Full length (from UniProt Q52WX2)
relative phosphorylation
Details | at +1 | at +2 | at +3 | at +4 | at -1 | at -2 | at -3 | at -4 | at -5
A fixed | 0.96 | 0.91 | 0.834 | 0.989 | 0.983 | 1.24 | 0.407 | 1.08 | 0.746
D fixed | 0.948 | 1.5 | 1.36 | 1.18 | 1.06 | 0.195 | 0.0944 | 0.269 | 0.195
E fixed | 0.863 | 1.29 | 1.41 | 1.01 | 0.51 | 0.239 | 0.113 | 0.58 | 0.186
F fixed | 0.737 | 1 | 0.925 | 0.851 | 0.808 | 0.782 | 0.161 | 0.922 | 2.33
G fixed | 1.32 | 1.01 | 1.18 | 1.25 | 1.22 | 0.42 | 0.151 | 0.634 | 0.383
H fixed | 0.958 | 1.36 | 1.11 | 1.14 | 1.38 | 1.02 | 0.37 | 1.29 | 0.5
I fixed | 0.817 | 0.677 | 0.747 | 0.787 | 0.251 | 0.861 | 0.133 | 0.753 | 1.97
K fixed | 0.485 | 0.494 | 0.622 | 0.828 | 0.982 | 1.71 | 1.76 | 1.99 | 0.506
L fixed | 0.93 | 0.881 | 0.812 | 0.905 | 0.862 | 0.957 | 0.166 | 0.656 | 1.83
M fixed | 0.852 | 0.849 | 0.793 | 0.983 | 1.15 | 1.75 | 0.184 | 0.998 | 1.09
N fixed | 1.35 | 1.18 | 1.07 | 1.18 | 1.94 | 0.609 | 0.187 | 0.49 | 0.255
P fixed | 2.53 | 1.08 | 1.64 | 1.69 | 1.74 | 0.27 | 0.188 | 0.275 | 1.15
Q fixed | 1.12 | 1.17 | 1.04 | 0.994 | 1.07 | 1.21 | 0.581 | 1.18 | 0.597
R fixed | 0.531 | 0.682 | 0.619 | 0.709 | 0.828 | 2.71 | 12 | 2.72 | 1.07
V fixed | 0.953 | 0.693 | 0.77 | 0.699 | 0.401 | 1.27 | 0.153 | 0.95 | 1.22
W fixed | 0.834 | 1.05 | 1.09 | 0.958 | 0.658 | 0.792 | 0.198 | 0.926 | 2.21
Y fixed | 0.816 | 1.16 | 0.979 | 0.858 | 1.16 | 0.961 | 0.178 | 1.28 | 0.746
pThr fixed | 0.598 | 1.1 | 1.02 | 1.4 | 0.203 | 0.181 | 0.105 | 0.261 | 0.193
pTyr fixed | 0.717 | 1.35 | 1.36 | 1.6 | 0.745 | 0.215 | 0.0961 | 0.24 | 0.374

MAP4K2, construct: Full length (from UniProt Q12851)
relative phosphorylation
Details | at +1 | at +2 | at +3 | at +4 | at -1 | at -2 | at -3 | at -4 | at -5
A fixed | 0.468 | 0.739 | 0.703 | 0.786 | 0.858 | 1.1 | 0.767 | 0.881 | 0.946
D fixed | 0.266 | 0.979 | 0.592 | 0.804 | 0.927 | 0.912 | 0.852 | 1.09 | 1.01
E fixed | 0.259 | 0.759 | 0.52 | 0.815 | 0.595 | 0.575 | 0.769 | 1.03 | 0.889
F fixed | 1.07 | 0.58 | 0.762 | 0.866 | 0.722 | 1.27 | 0.852 | 1.09 | 1.12
G fixed | 0.742 | 0.986 | 0.999 | 1.07 | 1.61 | 1.19 | 1.45 | 1.37 | 1.26
H fixed | 0.576 | 1.03 | 1.1 | 1.06 | 1.17 | 1.29 | 1.09 | 0.999 | 1.07
I fixed | 1.6 | 0.396 | 0.506 | 0.662 | 0.251 | 0.574 | 0.457 | 0.596 | 0.629
K fixed | 0.519 | 2.31 | 2.03 | 1.65 | 1.48 | 0.754 | 1.69 | 1.05 | 1.18
L fixed | 3.02 | 0.649 | 0.694 | 0.82 | 0.868 | 0.634 | 0.558 | 0.688 | 0.662
M fixed | 3.03 | 0.78 | 0.773 | 0.938 | 1.03 | 0.778 | 0.706 | 0.852 | 0.858
N fixed | 0.852 | 1.24 | 1.26 | 1.2 | 1.88 | 1.14 | 1.28 | 0.955 | 0.971
P fixed | 0.398 | 1.21 | 1.29 | 1.03 | 0.954 | 1.09 | 1.3 | 1.38 | 1.12
Q fixed | 0.581 | 1.11 | 0.996 | 1.22 | 1.09 | 0.908 | 1.05 | 0.921 | 0.834
R fixed | 0.55 | 2.4 | 2.41 | 1.41 | 1.43 | 1.01 | 1.51 | 1.12 | 1.24
V fixed | 0.749 | 0.486 | 0.583 | 0.665 | 0.311 | 0.66 | 0.438 | 0.596 | 0.765
W fixed | 1.43 | 0.652 | 1 | 1.15 | 0.765 | 1.38 | 1.19 | 1.29 | 1.28
Y fixed | 0.892 | 0.689 | 0.783 | 0.866 | 1.05 | 1.75 | 1.04 | 1.1 | 1.16
pThr fixed | 1.48 | 1.36 | 1.3 | 0.836 | 0.698 | 1.24 | 1.13 | 1.2 | 1.27
pTyr fixed | 0.518 | 0.636 | 0.953 | 0.756 | 0.759 | 0.98 | 1.08 | 1.11 | 1.15

AKT2, construct: Full length (from UniProt P31751)
relative phosphorylation
Details | at +1 | at +2 | at +3 | at +4 | at -1 | at -2 | at -3 | at -4 | at -5
A fixed | 0.789 | 1.29 | 1.06 | 0.923 | 0.951 | 0.988 | 0.523 | 1.15 | 1.09
D fixed | 0.487 | 0.644 | 0.589 | 0.615 | 0.663 | 0.303 | 0.213 | 0.571 | 0.519
E fixed | 0.448 | 0.575 | 0.584 | 0.595 | 0.457 | 0.304 | 0.231 | 0.647 | 0.536
F fixed | 1.78 | 0.673 | 0.86 | 0.681 | 0.795 | 0.446 | 0.288 | 0.7 | 0.931
G fixed | 0.854 | 1.36 | 1.27 | 1.23 | 1.16 | 0.615 | 0.351 | 1.19 | 1.05
H fixed | 0.947 | 1.76 | 1.39 | 1.15 | 1.28 | 0.822 | 0.546 | 1.03 | 1.04
I fixed | 1.14 | 0.734 | 0.617 | 0.687 | 0.43 | 0.438 | 0.274 | 0.661 | 0.711
K fixed | 1.02 | 1.33 | 1.79 | 1.96 | 1.36 | 2.83 | 1.91 | 1.98 | 1.67
L fixed | 1.11 | 0.872 | 0.859 | 0.736 | 0.772 | 0.784 | 0.29 | 0.797 | 0.838
M fixed | 1.35 | 0.8 | 0.735 | 0.814 | 0.984 | 0.488 | 0.291 | 0.888 | 0.872
N fixed | 1.1 | 1.23 | 0.919 | 1.06 | 1.67 | 0.547 | 0.304 | 0.914 | 0.807
P fixed | 0.722 | 0.925 | 1.02 | 1.64 | 1.12 | 0.385 | 0.34 | 0.972 | 1.02
Q fixed | 1.19 | 0.881 | 0.964 | 1.11 | 1.12 | 0.657 | 0.48 | 0.986 | 0.841
R fixed | 1.12 | 1.41 | 1.82 | 1.68 | 1.61 | 6.03 | 10.1 | 2.35 | 2.51
V fixed | 1.01 | 0.92 | 0.743 | 0.64 | 0.523 | 0.486 | 0.275 | 0.701 | 0.736
W fixed | 0.972 | 0.723 | 0.888 | 0.705 | 0.737 | 0.437 | 0.294 | 0.674 | 0.907
Y fixed | 0.971 | 0.878 | 0.887 | 0.765 | 1.38 | 0.441 | 0.311 | 0.803 | 0.927
pThr fixed | 0.772 | 1.1 | 0.808 | 0.932 | 0.441 | 0.482 | 0.346 | 0.752 | 0.776
pTyr fixed | 0.884 | 1.13 | 1.01 | 0.71 | 0.83 | 0.425 | 0.32 | 0.641 | 0.809
